{"source": "patent US20240309051A1", "about": "“[…] T (TFH) CELLS […] TO SARS-COV-2 VIRUS” (priority 2021, published 2024)", "binders": {"B1": {"name": "Clone 1 (TCR-017) (TCR)", "alpha TRAV12-1 TRAJ12 CDR3": "CVVNRGSSYKLIF", "beta TRBV11-2 TRBJ2-7 CDR3": "CASSQTYEQYF"}}, "target": "T1, SARS-COV-2 S protein, S867-881 peptide with residue 3 (Q) of SEQ ID NO: 13 replaced with alanine peptide on … (human)", "T1 peptide": "DEMIAAYTSALLAGT", "experiment": "activation reporter or marker", "data": [{"binder": "B1", "values": [{"measurement": "binding result", "value": "no recognition"}]}]}
